Patent US20160115245A1 (VIB VZW, published 2016)

B1: Nb4 (VHH)
VHH: QVQLQESGGGSVQTGGSLRLSCAASGYTFSSYCMGWFRQAPGKERELVSTIISDGSTYYADSVKGRFTISQDNAKNTVYLQMNNLKAEDTAIYYCAARSGGVCSGRASRYNYWGQGTQVTVSS
notes: Same nanobody as m4, but in the HeLa-expressed HA-Myc-His6 format of m6-m8; also called Nb4, HA-Myc-His6 tagged, expressed in HeLa cells
B2: Nb2, His6-tagged, expressed in E. coli (pET30a) (VHH)
VHH: QVQLQESGGGSVQAGGSLRLACVASGGDTRPYITYWMGWYRQAPGKEREGVATIYTGGSGTYYSDSVEGRFTISQDKAQRTVYLQMNDLKPEDTAMYYCAAGNGALPPGRRLSPQNMDTWGPGTQVTVSS
notes: Dromedary-derived nanobody; also called SOD1 nanobody from dromedary library; not shown: His6 tag from pET30a (BamHI/XhoI)
B3: Nb1, His6-tagged, expressed in E. coli (pET30a) (VHH)
VHH: QVQLQESGGGLVQPGGSLRLSCRASETLFSLYAMGWYRQAPGKQPELIATISGGGEGTGNYADPVKGRFTISRNNADNMVFLQMNNLKPEDTAVYYCNVYGTNLAPWGQGTQVTVSS
notes: Alpaca-derived nanobody; also called SOD1 nanobody from alpaca library; not shown: His6 tag and the pET30a vector residues around it

How the values were obtained:
[1] = biological target: T1, SOD1-CFP (human SOD1 fused to CFP, expressed in HeLa cells) (human, UniProt P00441 2-154); assay: Ni-agarose pull-down of HA-Myc-His6 tagged nanobody from co-transfected HeLa cells, blot anti-CFP
T1 construct: not shown: CFP of pCDNA3-CFP (Addgene #13030)

[2] = biological target: T2, recombinant human superoxide dismutase [Cu-Zn] (SOD1), wild type (human, UniProt P00441 2-154); assay: isothermal titration calorimetry, 25 C
T2 construct: Used immobilised in the dot blot and in solution in ITC; The construct is not described further; also called recombinant SOD1; SOD1 WT

[3] = biological target: T2, recombinant human superoxide dismutase …; assay: isothermal titration calorimetry, 25 C; remark: listed apart in the source

T2 sequence (P00441 2-154 limits assumed): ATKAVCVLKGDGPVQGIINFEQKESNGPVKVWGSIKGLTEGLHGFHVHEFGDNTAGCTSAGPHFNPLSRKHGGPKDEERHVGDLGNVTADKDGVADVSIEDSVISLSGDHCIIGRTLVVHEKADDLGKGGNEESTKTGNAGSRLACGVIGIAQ
T1 sequence (P00441 2-154): as the sequence (P00441 2-154 limits assumed) above

Row | Binder | binding result [1] | Kd [2] [nM] | ΔH [3] [kcal/mol] | ΔS [3] [cal/mol/deg]
1 | B1 | no binding | – | – | –
2 | B2 | – | ~1000 | -16 | -23
3 | B3 | – | ~200 | -11 | -17
